B1: FAM46D (parent)
chain: LELKFVSSLRRQFEFSVDSFQIVL
B2: HSP90AB1 (parent)
chain: QVANSAFVERVRKRGFEVVYMTEP
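Note: lentivirally expressed fusions sorted by FACS into six bins by GFP to DsRed ratio, PSI derived from sequencing read proportions per bin multiplied by bin number.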

Variants of: B1
Experiment: protein stability index of a GFP-peptide fusion (GPS, HEK-293T) (PSI 1-6); higher = more stable
Details: c terminus: a fixed tail appended
Work on LELKFVSSLRRQFEFSVDSFQISL [V23S] yielded a protein stability index of 2.88. Variant LELKFVSSLRRQFEFSVDSFQIEL [V23E] has a protein stability index of 4.1. In the case of LELKFVSSLRRQFEFSVDSFQINL [V23N], the protein stability index is reported as 3.11. LELKFVSSLRRQFEFSVDSFQILL [V23L] gave a protein stability index of 2.9. LELKFVSSLRRQFEFSVDSFQIQL [V23Q] showed a protein stability index of 2.29. For LELKFVSSLRRQFEFSVDSFQIFL [V23F], the protein stability index was 1.98. For LELKFVSSLRRQFEFSVDSFQITL [V23T], the protein stability index was 2.62. Work on LELKFVSSLRRQFEFSVDSFQIPL [V23P] yielded a protein stability index of 2.14. For LELKFVSSLRRQFEFSVDSFQIRL [V23R], the protein stability index was 2.76. Work on LELKFVSSLRRQFEFSVDSFQIAL [V23A] yielded a protein stability index of 3.08. Work on LELKFVSSLRRQFEFSVDSFQIHL [V23H] yielded a protein stability index of 2.67. For LELKFVSSLRRQFEFSVDSFQIWL [V23W], the protein stability index was 3.15. Work on LELKFVSSLRRQFEFSVDSFQIGL [V23G] yielded a protein stability index of 1.94. With LELKFVSSLRRQFEFSVDSFQIIL [V23I] the protein stability index was 2.6. In the case of LELKFVSSLRRQFEFSVDSFQIYL [V23Y], the protein stability index is reported as 3.37. Work on LELKFVSSLRRQFEFSVDSFWIVL [Q21W] yielded a protein stability index of 2.89. Variant LELKFVSSLRRQFEFSVDSFYIVL [Q21Y] has a protein stability index of 2.8. LELKFVSSLRRQFEFSVDSFQIVY [L24Y] showed a protein stability index of 2.7. LELKFVSSLRRQFEFSVDSFQIVD [L24D] gave a protein stability index of 1.78. Variant LELKFVSSLRRQFEFSVDSFQIVA [L24A] has a protein stability index of 2.78. LELKFVSSLRRQFEFSVDSFQIVH [L24H] gave a protein stability index of 4.63. In the case of LELKFVSSLRRQFEFSVDSFQIVP [L24P], the protein stability index is reported as 2.58. LELKFVSSLRRQFEFSVDSFQIVC [L24C] showed a protein stability index of 3.35. LELKFVSSLRRQFEFSVDSFQIVV [L24V] gave a protein stability index of 1.77. With LELKFVSSLRRQFEFSVDSFQIVF [L24F] the protein stability index was 3.74. LELKFVSSLRRQFEFSVDSFQIVN [L24N] showed a protein stability index of 2.39. LELKFVSSLRRQFEFSVDSFQIVK [L24K] showed a protein stability index of 2.35. LELKFVSSLRRQFEFSVDSFQIVS [L24S] showed a protein stability index of 3.63. Variant LELKFVSSLRRQFEFSVDSFQIVI [L24I] has a protein stability index of 3.26. With LELKFVSSLRRQFEFSVDSFQIVW [L24W] the protein stability index was 5.02. In the case of LELKFVSSLRRQFEFSVDSFQIVQ [L24Q], the protein stability index is reported as 2.27. LELKFVSSLRRQFEFSVDSFQIVE [L24E] gave a protein stability index of 3.4. In the case of LELKFVSSLRRQFEFSVDSFQIVG [L24G], the protein stability index is reported as 2.6. With LELKFVSSLRRQFEFSVDSFQIVM [L24M] the protein stability index was 2.73. In the case of LELKFVSSLRRQFEFSVDSFQIVR [L24R], the protein stability index is reported as 2.73. For LELKFVSSLRRQFEFSVDSFQNVL [I22N], the protein stability index was 3.28. With LELKFVSSLRRQFEFSVDSFQGVL [I22G] the protein stability index was 3.17. With LELKFVSSLRRQFEFSVDSFQDVL [I22D] the protein stability index was 2.6. LELKFVSSLRRQFEFSVDSFQPVL [I22P] showed a protein stability index of 4.29. In the case of LELKFVSSLRRQFEFSVDSFQLVL [I22L], the protein stability index is reported as 2.7. Work on LELKFVSSLRRQFEFSVDSFQVVL [I22V] yielded a protein stability index of 3.07. Variant LELKFVSSLRRQFEFSVDSFQMVL [I22M] has a protein stability index of 3.31. In the case of LELKFVSSLRRQFEFSVDSFQAVL [I22A], the protein stability index is reported as 2.26. In the case of LELKFVSSLRRQFEFSVDSFQFVL [I22F], the protein stability index is reported as 3.23. LELKFVSSLRRQFEFSVDSFQEVL [I22E] gave a protein stability index of 2.65. LELKFVSSLRRQFEFSVDSFQHVL [I22H] showed a protein stability index of 1.5. In the case of LELKFVSSLRRQFEFSVDSFQCVL [I22C], the protein stability index is reported as 2.93. Work on LELKFVSSLRRQFEFSVDSFQRVL [I22R] yielded a protein stability index of 2.04. Variant LELKFVSSLRRQFEFSVDSFQSVL [I22S] has a protein stability index of 2.36. With LELKFVSSLRRQFEFSVDSFQTVL [I22T] the protein stability index was 2.21. Variant LELKFVSSLRRQFEFSVDSFQWVL [I22W] has a protein stability index of 2.8. Work on LELKFVSSLRRQFEFSVDSFQYVL [I22Y] yielded a protein stability index of 3.01. LELKFVSSLRRQFEFSVDSFQKVL [I22K] gave a protein stability index of 1.71.

Variants of: B2
Experiment: as above
Details: c terminus: a fixed tail appended
In the case of QVANSAFVERVRKNGFEVVYMTEP [R14N], the protein stability index is reported as 2.69. QVANSAFVERVRKQGFEVVYMTEP [R14Q] gave a protein stability index of 2.1. For QVANSAFVERVRKRGVEVVYMTEP [F16V], the protein stability index was 2.64. Work on QVANSAFVERVRKRGAEVVYMTEP [F16A] yielded a protein stability index of 3.87. QVANSAFVERVRKRGLEVVYMTEP [F16L] showed a protein stability index of 2.52. Work on QVANSAFVERVRKRGTEVVYMTEP [F16T] yielded a protein stability index of 3.1. Work on QVANSAFVERVRKRGEEVVYMTEP [F16E] yielded a protein stability index of 4.47. QVANSAFVERVRKRGPEVVYMTEP [F16P] gave a protein stability index of 3.05. Work on QVANSAFVERVRKRGGEVVYMTEP [F16G] yielded a protein stability index of 3.28. QVANSAFVERVRKRGCEVVYMTEP [F16C] showed a protein stability index of 2.71. For QVANSAFVERVRKRGFEVVYMSEP [T22S], the protein stability index was 2.7. For QVANSAFVERVRKRGFEVVYMMEP [T22M], the protein stability index was 1.91. QVANSAFVERVRKRGFEVVYMGEP [T22G] showed a protein stability index of 2. With QVANSAFVERVRKRGFEVVYMPEP [T22P] the protein stability index was 2.38. In the case of QVANSAFVERVRKRGFEVVYMLEP [T22L], the protein stability index is reported as 1.7. Variant QVANSAFVERVRKRGFEVVYMEEP [T22E] has a protein stability index of 2.56. Variant QVANSAFVERVRKRGFEVVYMCEP [T22C] has a protein stability index of 2.12. Variant QVANSAFVERVRKRGFEVVYMHEP [T22H] has a protein stability index of 1.91. Variant QVANSAFVERVRKRGFEVVYMFEP [T22F] has a protein stability index of 1.68. Variant QVANSAFVERVRKRGFEVVYMIEP [T22I] has a protein stability index of 1.81. Variant QVANSAFVERSRKRGFEVVYMTEP [V11S] has a protein stability index of 2.61. In the case of QVANSAFVERGRKRGFEVVYMTEP [V11G], the protein stability index is reported as 2.56. For QVANSAFVERARKRGFEVVYMTEP [V11A], the protein stability index was 2.62. QVANSAFVERLRKRGFEVVYMTEP [V11L] gave a protein stability index of 1.69. For QVANSAFVERTRKRGFEVVYMTEP [V11T], the protein stability index was 2.83. Work on QVANSAFVERPRKRGFEVVYMTEP [V11P] yielded a protein stability index of 2.48. For QVANSAFVERKRKRGFEVVYMTEP [V11K], the protein stability index was 1.85. For QVANSAFVERWRKRGFEVVYMTEP [V11W], the protein stability index was 1.34. With QVANSAFVERVRKRFFEVVYMTEP [G15F] the protein stability index was 2.21. With QVANSAFVERVRKRSFEVVYMTEP [G15S] the protein stability index was 2.38. Work on QVANSAFVERVRKRNFEVVYMTEP [G15N] yielded a protein stability index of 2.61. QVANSAFVERVRKRCFEVVYMTEP [G15C] gave a protein stability index of 1.79. For QVANSAFVERVRKRWFEVVYMTEP [G15W], the protein stability index was 1.91. Work on QVANSAFVERVRRRGFEVVYMTEP [K13R] yielded a protein stability index of 2.43. QVANSAFVERVRGRGFEVVYMTEP [K13G] gave a protein stability index of 1.34. QVANSAFVERVRARGFEVVYMTEP [K13A] showed a protein stability index of 2.42. Variant QVANSAFVERVRPRGFEVVYMTEP [K13P] has a protein stability index of 2.63. QVANSAFVERVRSRGFEVVYMTEP [K13S] gave a protein stability index of 2.83. Work on QVANSAFVERVRDRGFEVVYMTEP [K13D] yielded a protein stability index of 2.67. Work on QVANSAFVERVRFRGFEVVYMTEP [K13F] yielded a protein stability index of 1.58. For QVANSAFSERVRKRGFEVVYMTEP [V8S], the protein stability index was 2.54.
